Source: US12502351B2, “Receptor targeting constructs and uses thereof” (Cedars-Sinai Medical Center, priority 2014, dated 2025)

Key:
[1] = Tissue distribution in mice with no tumors; format: in vivo, mouse; settings: tail vein injection
[2] = tested on: MDA-MB-435 cells; assay: Cy3-labeled oligonucleotide delivery, confocal immunofluorescence; format: cell-based, human; settings: Cy3-labeled oligonucleotide 50 pmol, 1 h at 37° C.
Protocol: HerPBK10 transports a labeled oligonucleotide in MDA-MB-435 cells. To determine whether HerPBK10 can mediate single-stranded oligonucleotide delivery, a Cy3-labeled oligonucleotide (50 pmol) was incubated with HerPBK10 (5 μg) or Lipofectamine 2000 (Invitrogen, Carlsbad, CA, USA), a commercial transfection reagent as a comparative control, in 0.1 M HEPES/Optimem I (Invitrogen; Carlsbad, CA, USA) for 20 minutes at RT. The resulting mixture was added to MDA-MB-435 cells, which express HER, and incubated for 1 h at 37° C. Cells were fixed in 4% PFA for 15′ at RT and processed for immunofluorescence against HerPBK10. Cells were counterstained with DAPI to identify nuclei. Images were acquired using a Leica SP2 laser scanning confocal microscope.

[3] = biological target: T1, HER3 (human ErbB3 extracellular domain) (Homo sapiens, UniProt P21860); assay: ELISA of HerPBK10 binding to immobilized HER3
T1 construct: an immobilized peptide containing the extracellular domain of human HER3; purchased Prospec
From the text: (§1) FIGS. 12A-12C is a group of graphs showing HerPBK10 binds to HER3 and is not inhibited by patient serum. […] Un: no HerPBK10. […] Control samples were bound in bovine serum and receptor-binding verified by competitive inhibition with recombinant heregulin ligand (+Her). N=3. *, p<0.05 compared to control (−Her: no competitive inhibitor).

[4] = biological target: T2, HER3 (Homo sapiens, UniProt P21860); assay: ELISA of HerPBK10 binding to HER2+ cells with competitive inhibitors or sera
T2 construct: endogenous in cells
From the text: as §1

[5] = biological target: T3, mouse HER3 (Mus musculus, UniProt Q61526); assay: Binding of HerPBK10 to 4T1 mouse mammary tumor cells; settings: soluble HER3 peptide as competitive inhibitor
T3 construct: endogenous in cells; host or cells: 4T1 mouse mammary tumor cells
From the text: FIGS. 13A-13C show the results that HerPBK10 binds to mouse HER3. […] Blue residues indicate amino acid differences. […] N=3. *, p<0.05 compared to HerPBK10 alone

[6] = biological target: T2, HER3; settings: cells in culture; cited from earlier work
[7] = tested on: HER2+ tumors; settings: cited from earlier work
[8] = repeat dosing, immune-competent mice; cited from earlier work
[9] = tested on: human cardiosphere-derived cells (CDCs); assay: Human CDC viability; settings: 2 or 5 days exposure

T2 sequence (P21860 20-1342): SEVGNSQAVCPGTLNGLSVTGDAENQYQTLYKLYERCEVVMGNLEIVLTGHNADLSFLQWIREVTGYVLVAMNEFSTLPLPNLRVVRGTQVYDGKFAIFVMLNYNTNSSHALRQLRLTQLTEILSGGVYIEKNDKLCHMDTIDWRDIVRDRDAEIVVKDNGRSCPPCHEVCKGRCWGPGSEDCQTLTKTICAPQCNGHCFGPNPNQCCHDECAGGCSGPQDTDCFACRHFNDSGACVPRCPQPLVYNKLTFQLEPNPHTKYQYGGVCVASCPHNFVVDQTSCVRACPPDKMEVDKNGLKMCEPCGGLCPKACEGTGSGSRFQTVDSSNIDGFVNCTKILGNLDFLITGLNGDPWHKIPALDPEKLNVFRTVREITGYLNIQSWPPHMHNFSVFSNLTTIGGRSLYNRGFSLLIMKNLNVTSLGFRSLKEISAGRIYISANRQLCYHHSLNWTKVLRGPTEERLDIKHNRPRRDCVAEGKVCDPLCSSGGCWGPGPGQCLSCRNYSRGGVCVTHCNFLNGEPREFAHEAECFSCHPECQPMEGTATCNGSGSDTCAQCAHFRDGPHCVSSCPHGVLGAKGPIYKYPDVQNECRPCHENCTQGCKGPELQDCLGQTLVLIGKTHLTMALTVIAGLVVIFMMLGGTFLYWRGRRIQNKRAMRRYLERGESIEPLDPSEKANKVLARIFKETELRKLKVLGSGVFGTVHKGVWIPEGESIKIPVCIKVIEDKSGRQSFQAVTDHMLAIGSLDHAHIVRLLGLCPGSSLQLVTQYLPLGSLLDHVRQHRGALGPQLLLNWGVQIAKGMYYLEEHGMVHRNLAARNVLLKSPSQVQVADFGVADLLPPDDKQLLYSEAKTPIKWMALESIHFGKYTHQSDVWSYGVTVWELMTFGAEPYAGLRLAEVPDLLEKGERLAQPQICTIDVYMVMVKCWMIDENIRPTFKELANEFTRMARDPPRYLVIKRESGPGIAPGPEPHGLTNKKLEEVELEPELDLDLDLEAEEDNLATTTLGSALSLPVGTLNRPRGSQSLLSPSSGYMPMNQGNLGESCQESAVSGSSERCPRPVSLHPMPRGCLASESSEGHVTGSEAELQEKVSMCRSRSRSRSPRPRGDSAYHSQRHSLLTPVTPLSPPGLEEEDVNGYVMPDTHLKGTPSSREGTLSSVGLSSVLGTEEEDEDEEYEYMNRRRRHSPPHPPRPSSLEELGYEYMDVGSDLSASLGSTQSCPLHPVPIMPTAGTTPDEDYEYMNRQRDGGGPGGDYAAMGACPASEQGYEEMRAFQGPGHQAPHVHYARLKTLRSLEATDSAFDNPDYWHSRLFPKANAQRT
T1 sequence (P21860 20-643 limits assumed): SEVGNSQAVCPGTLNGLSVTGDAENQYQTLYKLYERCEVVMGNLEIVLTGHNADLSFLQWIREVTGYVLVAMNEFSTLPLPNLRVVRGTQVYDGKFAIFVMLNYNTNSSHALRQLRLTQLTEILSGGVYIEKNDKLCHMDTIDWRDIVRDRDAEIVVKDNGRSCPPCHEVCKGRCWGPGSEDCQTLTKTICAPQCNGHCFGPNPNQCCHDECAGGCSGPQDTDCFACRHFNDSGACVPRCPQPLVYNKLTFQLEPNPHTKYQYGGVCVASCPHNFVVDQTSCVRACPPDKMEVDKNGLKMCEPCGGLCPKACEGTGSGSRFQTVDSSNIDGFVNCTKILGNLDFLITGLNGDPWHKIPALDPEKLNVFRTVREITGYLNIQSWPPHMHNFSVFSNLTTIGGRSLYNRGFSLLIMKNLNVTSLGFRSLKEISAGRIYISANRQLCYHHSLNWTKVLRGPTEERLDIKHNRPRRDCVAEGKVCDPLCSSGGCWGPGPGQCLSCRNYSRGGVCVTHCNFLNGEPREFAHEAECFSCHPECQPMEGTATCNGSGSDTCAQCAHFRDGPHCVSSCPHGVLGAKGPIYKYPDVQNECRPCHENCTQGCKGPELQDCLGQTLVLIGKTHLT
T3 sequence (Q61526 20-1339): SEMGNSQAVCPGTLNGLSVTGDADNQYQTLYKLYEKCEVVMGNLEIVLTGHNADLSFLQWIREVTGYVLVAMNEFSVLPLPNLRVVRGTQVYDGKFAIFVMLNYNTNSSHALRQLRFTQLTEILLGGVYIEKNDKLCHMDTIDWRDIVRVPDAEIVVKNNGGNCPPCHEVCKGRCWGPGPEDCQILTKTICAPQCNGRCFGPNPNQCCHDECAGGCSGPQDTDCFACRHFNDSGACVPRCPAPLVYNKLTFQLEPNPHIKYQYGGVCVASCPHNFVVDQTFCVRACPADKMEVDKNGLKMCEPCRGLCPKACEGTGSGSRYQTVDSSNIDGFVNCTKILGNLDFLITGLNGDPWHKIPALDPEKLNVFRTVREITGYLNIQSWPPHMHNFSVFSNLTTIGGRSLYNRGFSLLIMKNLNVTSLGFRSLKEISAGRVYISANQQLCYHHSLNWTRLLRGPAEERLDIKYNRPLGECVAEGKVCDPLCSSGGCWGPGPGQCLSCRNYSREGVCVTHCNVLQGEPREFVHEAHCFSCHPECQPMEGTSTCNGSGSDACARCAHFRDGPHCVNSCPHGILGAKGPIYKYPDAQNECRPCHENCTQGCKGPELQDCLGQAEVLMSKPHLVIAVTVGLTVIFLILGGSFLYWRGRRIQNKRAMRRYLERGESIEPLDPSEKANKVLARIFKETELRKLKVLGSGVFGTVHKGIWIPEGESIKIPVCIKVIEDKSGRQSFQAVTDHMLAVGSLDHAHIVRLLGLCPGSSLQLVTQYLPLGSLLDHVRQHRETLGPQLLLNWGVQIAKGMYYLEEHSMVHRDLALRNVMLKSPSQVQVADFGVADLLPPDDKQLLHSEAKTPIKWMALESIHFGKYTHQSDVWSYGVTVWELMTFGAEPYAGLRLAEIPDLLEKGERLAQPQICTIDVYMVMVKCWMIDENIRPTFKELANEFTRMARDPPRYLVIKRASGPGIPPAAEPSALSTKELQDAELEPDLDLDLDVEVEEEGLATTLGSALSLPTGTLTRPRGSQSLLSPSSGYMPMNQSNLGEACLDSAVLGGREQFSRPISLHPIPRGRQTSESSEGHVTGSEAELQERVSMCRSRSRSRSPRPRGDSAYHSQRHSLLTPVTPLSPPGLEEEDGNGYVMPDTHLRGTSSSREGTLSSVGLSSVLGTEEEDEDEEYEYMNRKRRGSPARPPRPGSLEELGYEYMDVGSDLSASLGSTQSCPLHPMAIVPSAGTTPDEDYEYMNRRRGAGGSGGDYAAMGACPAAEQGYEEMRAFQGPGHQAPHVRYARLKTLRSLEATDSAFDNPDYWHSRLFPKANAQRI

Molecule | brain delivery in mice without tumors [1] | oligonucleotide transport into cells [2] | binding to immobilized HER3 [3] | binding to immobilized HER3 with HER3 block ([3]; pre-incubation with soluble HER3 peptide) | binding with HER4 peptide or betacellulin ([4]; betacellulin 10 μg/mL) | binding to cellular HER3 with pertuzumab (Pz) ([4]; heterodimerization-inhibiting antibody) | binding to HER2+ cells in patient serum ([4]; sera from HER2+ patients and age-matched controls) | binding to human HER3+ cells with HER3 peptide ([4]; soluble HER3 peptide as competitive inhibitor) | binding to mouse HER3+ cells with HER3 peptide [5] | receptor binding with polyclonal antibodies against whole adenovirus [6] | dose for tumor growth ablation compared to doxorubicin ([7]; HER2+ tumors in mice) | effect on heart and liver tissue ([7]; mouse, in vivo) | immunogenicity ([7]; mouse, in vivo) | neutralizing antibody formation [8] | CDC viability [9]
PBK10: recombinant protein derived from the adenovirus capsid penton base with decalysine | no detectable brain delivery | – | – | – | – | – | – | – | – | – | – | – | – | – | –
HerPBK10: receptor binding region of heregulin-α (aa 35-239) fused to adenovirus penton base with decalysine tail (protein) LPPRLKEMKSQESAAGSKLVLRCETSSEYSSLRFKWFKNGNELNRKNKPQNIKIQKKPGKSELRINKASLADSGEYMCKVISKLGNDSASANITIVESNEIITGMPASTEGAYVSSESPIRISVSTEGANTSSSTSTSTTGTSHLVKCAEKEKTFCVNGGECFMVKDLSNPSRYLCKCQPGFTGARCTENVPMKVQNQEKAEELYMRRAAMYEEGPPPSYESVVSAAPVAAALGSPFDAPLDPPFVPPRYLRPTGGRNSIRYSELAPLFDTTRVYLVDNKSTDVASLNYQNDHSNFLTTVIQNNDYSPGEASTQTINLDDRSHWGGDLKTILHTNMPNVNEFMFTNKFKARVMVSRLPTKDNQVELKYEWVEFTLPEGNYSETMTIDLMNNAIVEHYLKVGRQNGVLESDIGVKFDTRNFRLGFDPVTGLVMPGVYTNEAFHPDIILLPGCGVDFTHSRLSNLLGIRKRQPFQEGFRITYDDLEGGNIPALLDVDAYQASLKDDTEQGGGGAGGSNSSGSGAEENSNAAAAAMQPVEDMNDHAIRGDTFATRAEEKRAEAEAAAEAAAPAAQPEVEKPQKKPVIKPLTEDSKKRSYNLISNDSTFTQYRSWYLAYNYGDPQTGIRSWTLLCTPDVTCGSEQVYWSLPDMMQDPVTFRSTRQISNFPVVGAELLPVHSKSFYNDQAVYSQLIRQFTSLTHVFNRFPENQILARPPAPTITTVSENVPALTDHGTLPLRNSIGGVQRVTITDARRRTCPYVYKALGIVSPRVLSSRTFKKKKKKKKKK | show brain localization | colocalized with the oligonucleotide during binding and uptake | bind to an immobilized peptide containing the extracellular domain of human HER3 | inhibited by pre-adsorption of HerPBK10 with free HER3 peptide | not inhibited by a HER4 peptide or betacellulin | does not prevent HerPBK10 binding to cellular HER3 | do not prevent HerPBK10 binding to HER2+ cells in culture | inhibits binding | inhibits binding | do not prevent receptor binding to cells in culture | > 10 × lower dose | sparing heart and liver tissue | no detectable immunogenicity | do not produce detectable neutralizing antibody formation against the protein | no toxic or growth promoting effect on tumor cells or CDCs
